Measured values published in patent US20180037651A1 (Janssen / Centocor, published 2018).

What was measured:
cyno GPRC5D [1] = molecular target: T1, cyno GPRC5D (cyno, UniProt Q9NZD1 1-343 (human entry)); test: FACS, cyno GPRC5D cells, 1 ug/ml
T1 construct: on transfected HEK293F or Daudi cells; also called cynomolgus monkey GPRC5D
T1 chain: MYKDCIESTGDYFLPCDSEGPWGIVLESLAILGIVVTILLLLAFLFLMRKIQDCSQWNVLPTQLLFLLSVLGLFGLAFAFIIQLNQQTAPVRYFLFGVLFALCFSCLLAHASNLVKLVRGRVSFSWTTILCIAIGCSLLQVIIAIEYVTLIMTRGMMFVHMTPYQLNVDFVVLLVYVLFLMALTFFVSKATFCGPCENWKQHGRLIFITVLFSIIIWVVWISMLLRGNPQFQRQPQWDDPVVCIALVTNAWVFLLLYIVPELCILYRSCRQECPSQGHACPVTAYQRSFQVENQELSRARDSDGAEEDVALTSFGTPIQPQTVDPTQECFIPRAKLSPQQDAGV
Procedure: Whole cell phage panning was completed using the human GPRC5D cells as antigen, as described above. […] These mAbs were initially evaluated for binding to cyno GPRC5D using FACS. […] Briefly, FACS screening was performed by normalizing protein concentration to 1 ug/ml and 100 ul of protein was mixed with 200,000 cells per well. The mAb was allowed to incubate with cells for 1 hour at 4° C. The cells were then washed three times with PBS and 0.2% FBS. […] The cells and secondary antibody were incubated for 1 hour at 4° C. The cells were then washed three times with PBS and 0.2% FBS. The cells were washed again using PBS and 0.2% FBS and then analyzed on FACSarry.

human GPRC5D [2] = molecular target: T2, human GPRC5D (human, UniProt Q9NZD1 1-345); test: FACS, human GPRC5D HEK293F cells
T2 construct: on transfected HEK293/RBL cells or endogenous on myeloma cells (H929, MM1R, OPM2, LP1, JIM3, patient plasma cells); also called G protein-coupled receptor class C group 5 member D; hGPRC5D
T2 sequence (Q9NZD1 whole entry): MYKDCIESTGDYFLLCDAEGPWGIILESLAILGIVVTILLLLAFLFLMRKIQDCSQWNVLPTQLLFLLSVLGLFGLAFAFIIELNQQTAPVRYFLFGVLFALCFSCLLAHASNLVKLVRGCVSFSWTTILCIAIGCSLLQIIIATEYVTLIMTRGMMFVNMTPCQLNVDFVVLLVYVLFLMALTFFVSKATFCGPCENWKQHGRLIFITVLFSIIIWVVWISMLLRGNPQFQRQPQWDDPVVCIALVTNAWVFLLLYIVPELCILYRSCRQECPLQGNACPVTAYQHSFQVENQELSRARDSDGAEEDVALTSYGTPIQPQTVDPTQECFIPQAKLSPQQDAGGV

cyno GPRC5D [3] = molecular target: T1, cyno GPRC5D; test: FACS, cyno GPRC5D HEK293F cells
cyno GPRC5D [4] = molecular target: T1, cyno GPRC5D; test: cell-based or functional assay
human GPRC5D [5] = molecular target: T2, human GPRC5D; test: FACS, human GPRC5D cells
human GPRC5D [6] = molecular target: T2, human GPRC5D; test: FACS binding to plasma cells in MM patient MM303BM bone marrow MNCs
murine GPRC5D = molecular target: T3, murine GPRC5D (murine, UniProt Q9JIL6 1-344); test: FACS, murine GPRC5D
T3 construct: also called mouse GPRC5D
T3 sequence: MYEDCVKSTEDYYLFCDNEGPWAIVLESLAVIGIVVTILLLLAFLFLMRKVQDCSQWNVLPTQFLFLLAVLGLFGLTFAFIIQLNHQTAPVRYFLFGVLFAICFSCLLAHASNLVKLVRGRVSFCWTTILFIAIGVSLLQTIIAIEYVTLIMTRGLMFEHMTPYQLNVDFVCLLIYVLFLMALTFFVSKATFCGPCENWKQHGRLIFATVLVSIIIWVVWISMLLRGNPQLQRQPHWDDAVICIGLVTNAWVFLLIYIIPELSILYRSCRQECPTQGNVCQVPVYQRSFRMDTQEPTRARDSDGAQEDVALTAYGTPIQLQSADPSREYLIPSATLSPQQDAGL

cyno GPRC5D [7] = molecular target: T1, cyno GPRC5D; test: cell-based or functional assay
human GPRC5D [8] = molecular target: T2, human GPRC5D; test: cell-based or functional assay
human GPRC5D [9] = molecular target: T2, human GPRC5D; test: FACS binding to plasma cells in MM patient MM305BM bone marrow MNCs

B1: GC5B251 (antibody, IgG1, V domains shown)
VH: QVQLVQSGAEVKKPGSSVKVSCKASGGTFSSYGISWVRQAPGQGLEWMGGIIPIFGNINYAQKFQGRVTITADESTSTAYMELSSLRSEDTAVYYCARVSRRFKRFAYYFDYWGQGTLVTVSS
VL: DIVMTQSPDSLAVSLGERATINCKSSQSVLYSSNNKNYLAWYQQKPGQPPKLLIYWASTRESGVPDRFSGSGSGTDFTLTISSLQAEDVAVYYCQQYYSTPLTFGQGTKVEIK
notes: human IgG4PAA
MFI (cyno GPRC5D [1]): 213000 MFI | MFI (human GPRC5D [2]): 11400 MFI | MFI (cyno GPRC5D [3]): 74500 MFI

B2: GC5B253 (antibody, V domains shown)
VH: QVQLVQSGAEVKKPGSSVKVSCKASGGTFSSYGISWVRQAPGQGLEWMGGIIPIFGNINYAQKFQGRVTITADESTSTAYMELSSLRSEDTAVYYCARVSRRFKRFAYYFDYWGQGTLVTVSS
VL: not shown
notes: GC5H42+PH9L4
MFI (cyno GPRC5D [1]): 574 MFI

B3: GCDB35 (bispecific antibody, IgG4)
heavy 1: not shown
VL: EIVLTQSPATLSLSPGERATLSCRASQSVSSYLAWYQQKPGQAPRLLIYDASNRATGIPARFSGSGSGTDFTLTISSLEPEDFAVYYCQQRSNWPLTFGQGTKVEIK
heavy 2: EVQLVESGGGLVQPGGSLRLSCAASGFTFNTYAMNWVRQAPGKGLEWVARIRSKYNNYATYYAASVKGRFTISRDDSKNSLYLQMNSLKTEDTAVYYCARHGNFGNSYVSWFAYWGQGTLVTVSSASTKGPSVFPLAPCSRSTSESTAALGCLVKDYFPEPVTVSWNSGALTSGVHTFPAVLQSSGLYSLSSVVTVPSSSLGTKTYTCNVDHKPSNTKVDKRVESKYGPPCPPCPAPEAAGGPSVFLFPPKPKDTLMISRTPEVTCVVVDVSQEDPEVQFNWYVDGVEVHNAKTKPREEQFNSTYRVVSVLTVLHQDWLNGKEYKCKVSNKGLPSSIEKTISKAKGQPREPQVYTLPPSQEEMTKNQVSLTCLVKGFYPSDIAVEWESNGQPENNYKTTPPVLDSDGSFLLYSKLTVDKSRWQEGNVFSCSVMHEALHNHYTQKSLSLSLGK
light: QTVVTQEPSLTVSPGGTVTLTCRSSTGAVTTSNYANWVQQKPGQAPRGLIGGTNKRAPGTPARFSGSLLGGKAALTLSGVQPEDEAEYYCALWYSNLWVFGGGTKLTVLGQPKAAPSVTLFPPSSEELQANKATLVCLISDFYPGAVTVAWKADSSPVKAGVETTTPSKQSNNKYAASSYLSLTPEQWKSHRSYSCQVTHEGSTVEKTVAPTECS
T cell mediated target cell killing, Cyno GPRC5D EC50 (cyno GPRC5D [4]): 4.65 nM

B4: GC5B252 (antibody, V domains shown)
VH: QVQLVQSGAEVKKPGSSVKVSCKASGGTFSSYGISWVRQAPGQGLEWMGGIIPIFGNINYAQKFQGRVTITADESTSTAYMELSSLRSEDTAVYYCARVSRRFKRFAYYFDYWGQGTLVTVSS
VL: EIVLTQSPATLSLSPGERATLSCRASQSVSSYLAWYQQKPGQAPRLLIYDASNRATGIPARFSGSGSGTDFTLTISSLEPEDFAVYYCQQRSNWPLTFGQGTKVEIK
notes: GC5H42+PH9L3
MFI (cyno GPRC5D [1]): 63300 MFI | MFI (human GPRC5D [2]): 1500 MFI | MFI (cyno GPRC5D [3]): 22000 MFI

B5: GC5B320 (antibody, IgG1, V domains shown)
VH: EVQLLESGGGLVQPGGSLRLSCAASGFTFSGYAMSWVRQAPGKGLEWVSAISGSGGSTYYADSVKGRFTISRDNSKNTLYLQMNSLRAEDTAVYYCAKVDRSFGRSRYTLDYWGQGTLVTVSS
VL: EIVLTQSPATLSLSPGERATLSCRASQSVSSYLAWYQQKPGQAPRLLIYDASNRATGIPARFSGSGSGTDFTLTISSLEPEDFAVYYCQQRSNWPLTFGQGTKVEIK
notes: GC5H58+PH9L3 (L6); human IgG4PAA
MFI (cyno GPRC5D [1]): 49600 MFI | MFI (human GPRC5D [2]): 22900 MFI | MFI (cyno GPRC5D [3]): 63300 MFI

B6: GC5B164 (antibody, IgG1, V domains shown)
VH: EVQLVQSGAEVKKPGESLKISCKGSGYSFTSYWIGWVRQMPGKGLEWMGIIYPGDSDTRYSPSFQGQVTISADKSISTAYLQWSSLKASDTAMYYCARVYSFGGRHKALFDYWGQGTLVTVSS
VL: EIVLTQSPATLSLSPGERATLSCRASQSVSSYLAWYQQKPGQAPRLLIYDASNRATGIPARFSGSGSGTDFTLTISSLEPEDFAVYYCQQRSNWPLTFGQGTKVEIK
notes: GC5H36+PH9L3 (L6); human IgG4PAA
MFI (cyno GPRC5D [1]): 122000 MFI | MFI (human GPRC5D [2]): 12700 MFI | MFI (cyno GPRC5D [3]): 78700 MFI

B7: GC5B332 (antibody, IgG1, V domains shown)
VH: EVQLVQSGAEVKKPGESLKISCKGSGYSFTSYWIGWVRQMPGKGLEWMGIIYPGDSDTRYSPSFQGQVTISADKSISTAYLQWSSLKASDTAMYYCARIGFYGRSFRIFDYWGQGTLVTVSS
VL: EIVLTQSPATLSLSPGERATLSCRASQSVSSYLAWYQQKPGQAPRLLIYDASNRATGIPARFSGSGSGTDFTLTISSLEPEDFAVYYCQQRSNWPLTFGQGTKVEIK
notes: GC5H35+PH9L3 (L6); human IgG4PAA
MFI (cyno GPRC5D [1]): 192000 MFI | MFI (human GPRC5D [2]): 13300 MFI | MFI (cyno GPRC5D [3]): 107000 MFI

B8: GC5B590 (antibody, V domains shown)
VH: QVTLKESGPVLVKPTETLTLTCTVSGFSLTSYNVHWIRQPPGKALEWLAVIWAGGSTNYNSALKSRLTISKDTSKSQVVLTMTNMRAEDTATYYCARDGIRLRFAYWGQGTLVTVSS
VL: EIVMTQSPATLSVSPGERATLSCKASQNVATHVGWYQQKPGQAPRLLIYSASYRYSGIPARFSGSGSGTEFTLTISSLQSEDFAVYYCQQYNRYPYTFGQGTKLEIK
notes: GC5B540 PTM variant
binding result (human GPRC5D [5]): binds

B9: GC5B594 (antibody, V domains shown)
VH: QVTLKESGPVLVKPTETLTLTCTVSGFSLTSYNVHWIRQPPGKALEWLAVIWAGGSTNYNSALKSRLTISKDTSKSQVVLTMTNMRAEDTATYYCARDAIRLRFAYWGQGTLVTVSS
VL: EIVMTQSPATLSVSPGERATLSCKASQNVATHVGWYQQKPGQAPRLLIYSASYRYSGIPARFSGSGSGTEFTLTISSLQSEDFAVYYCQQYNRYPYTFGQGTKLEIK
notes: GC5B540 PTM variant
binding result (human GPRC5D [5]): binds

B10: GC5B592 (antibody, V domains shown)
VH: QVTLKESGPVLVKPTETLTLTCTVSGFSLTSYNVHWIRQPPGKALEWLAVIWAGGSTNYNSALMSRLTISKDTSKSQVVLTMTNMRAEDTATYYCARDAIRLRFAYWGQGTLVTVSS
VL: EIVMTQSPATLSVSPGERATLSCKASQNVATHVGWYQQKPGQAPRLLIYSASYRYSGIPARFSGSGSGTEFTLTISSLQSEDFAVYYCQQYNRYPYTFGQGTKLEIK
notes: GC5B540 PTM variant
binding result (human GPRC5D [5]): binds

B11: GCDB53 (bispecific antibody, IgG4, V domains shown)
VH 1: not shown
VL 1: not shown
VH 2: EVQLVESGGGLVQPGGSLRLSCAASGFTFNTYAMNWVRQAPGKGLEWVARIRSKYNNYATYYAASVKGRFTISRDDSKNSLYLQMNSLKTEDTAVYYCARHGNFGNSYVSWFAYWGQGTLVTVSS
VL 2: QTVVTQEPSLTVSPGGTVTLTCRSSTGAVTTSNYANWVQQKPGQAPRGLIGGTNKRAPGTPARFSGSLLGGKAALTLSGVQPEDEAEYYCALWYSNLWVFGGGTKLTVL
notes: IgG4-PAA by Fab arm exchange; CD3 arm also F405L, R409K; also called GC5B465 x CD3B219
EC50 (human GPRC5D [6]): 3.98 nM | MFI (murine GPRC5D): 2660 MFI | T-cell redirection cytotoxicity EC50, cyno GPRC5D HEK cells (cyno GPRC5D [7]): 0.36 nM | T-cell redirection cytotoxicity EC50, human GPRC5D HEK cells (human GPRC5D [8]): 0.08 nM | EC50 (human GPRC5D [9]): 10.2 nM

B12: GCDB72 (bispecific antibody, IgG4, V domains shown)
VH 1: QVQLVQSGAEVKKPGASVKVSCKASGYSFTGYTMNWVRQAPGQGLEWMGLINPYNSDTNYAQKLQGRVTMTTDTSTSTAYMELRSLRSDDTAVYYCARVALRVALDYWGQGTLVTVSS
VL 1: DIQMTQSPSSLSASVGDRVTITCKASQNVATHVGWYQQKPGKAPKRLIYSASYRYSGVPSRFSGSGSGTEFTLTISNLQPEDFATYYCQQYNRYPYTFGQGTKLEIK
VH 2: EVQLVESGGGLVQPGGSLRLSCAASGFTFNTYAMNWVRQAPGKGLEWVARIRSKYNNYATYYAASVKGRFTISRDDSKNSLYLQMNSLKTEDTAVYYCARHGNFGNSYVSWFAYWGQGTLVTVSS
VL 2: QTVVTQEPSLTVSPGGTVTLTCRSSTGAVTTSNYANWVQQKPGQAPRGLIGGTNKRAPGTPARFSGSLLGGKAALTLSGVQPEDEAEYYCALWYSNLWVFGGGTKLTVL
notes: IgG4-PAA by Fab arm exchange; CD3 arm also F405L, R409K; also called GC5B596 x CD3B219
MFI (murine GPRC5D): 481 MFI | T-cell redirection cytotoxicity EC50, cyno GPRC5D HEK cells (cyno GPRC5D [7]): 3.41 nM

B13: GC5B163 (antibody, V domains shown)
VH: EVQLVQSGAEVKKPGESLKISCKGSGYSFTSYWIGWVRQMPGKGLEWMGIIYPGDSDTRYSPSFQGQVTISADKSISTAYLQWSSLKASDTAMYYCARVYSFGGRHKALFDYWGQGTLVTVSS
VL: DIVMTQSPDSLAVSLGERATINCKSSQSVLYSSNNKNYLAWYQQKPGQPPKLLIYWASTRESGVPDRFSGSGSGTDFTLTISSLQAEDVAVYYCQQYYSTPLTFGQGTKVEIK
notes: GC5H36+PH9L2
MFI (cyno GPRC5D [1]): 22000 MFI | MFI (human GPRC5D [2]): 840 MFI | MFI (cyno GPRC5D [3]): 7600 MFI

B14: GC5B243 (antibody, IgG1, V domains shown)
VH: EVQLLESGGGLVQPGGSLRLSCAASGFTFSDYGMHWVRQAPGKGLEWVSAIKYSGGSTYYADSVKGRFTISRDNSKNTLYLQMNSLRAEDTAVYYCAKRAESGPGLDYWGQGTLVTVSS
VL: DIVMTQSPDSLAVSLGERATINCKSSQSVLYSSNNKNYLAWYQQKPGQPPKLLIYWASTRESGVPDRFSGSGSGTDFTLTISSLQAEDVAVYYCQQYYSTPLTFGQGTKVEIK
notes: human IgG4PAA
MFI (cyno GPRC5D [1]): 117000 MFI | MFI (human GPRC5D [2]): 20500 MFI | MFI (cyno GPRC5D [3]): 67800 MFI
